The record followed here is patent publication US20250115663A1 (CELLDEX THERAPEUTICS, published 2025).

Experiment [1] has as its target T1, kappa-sCD40-Flag fusion protein, fragment amino acids 36-130 (human, UniProt P25942 56-150).
T1 construct: not shown: N-terminal human kappa light chain; C-terminal Flag tag
The experiment in a line: ELISA, kappa-sCD40-Flag fragment captured on anti-Flag. The procedure:
(§1) 1 μg/ml of purified kappa-sCD40-Flag fusion proteins or CHO cell supernatants containing the sCD40 fusion proteins were captured to microtiter plates that were pre-coated with 5 μg/ml mouse anti-Flag antibody (Sigma) in PBS and blocked with 5% bovine serum albumin in PBS. Following incubation with the CD40 antibody, the microplates were washed with PBS/Tween, and incubated with a goat anti-human IgG Fc polyclonal reagent conjugated to horseradish peroxidase. After washing, the plates were developed with HRP substrate, and analyzed at OD 450-650 using a microtiter plate reader. An ELISA with a goat anti-human IgG Fab2-HRP to measure kappa chain binding was carried out in parallel to validate the sCD40 fusion protein expression from different transfections.
Background: An ELISA detects its analyte on a solid surface through an enzyme-linked reagent.

Experiment [2] addresses T2, kappa-sCD40-Flag fusion protein, fragment amino acids 84-173 (human, UniProt P25942 104-193).
T2 construct: not shown: N-terminal human kappa light chain; C-terminal Flag tag
The description is as above. Here is the method: as §1

T2 sequence (P25942 104-193): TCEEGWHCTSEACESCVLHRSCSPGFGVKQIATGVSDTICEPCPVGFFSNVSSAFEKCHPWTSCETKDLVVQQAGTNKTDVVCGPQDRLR
T1 sequence (P25942 56-150): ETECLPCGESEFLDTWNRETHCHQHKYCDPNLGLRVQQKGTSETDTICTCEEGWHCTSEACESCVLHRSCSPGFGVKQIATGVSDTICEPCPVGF

B1: anti-CD40 human monoclonal antibody 3C3 (antibody, human IgG2, kappa, V domains shown)
VH: QVQLVESGGGVVQPGRSLRLSCAGSGFIFSRYGMYWVRQAPGKGLEWVAVIWYDGSYKYYADSVKGRFTISRDNSKNTLYLQMNSLRAEDTAVYYCARESPWYYFDYWGQGTLVTVSS
VL: DIQMTQSPSSLSASVGDRVTITCRASQGISNYLAWYQQKPGKVPKLLIYAASTLQSGVPSRFSGSGSGTDFTLTISSLQPEDVATYYCQKYKSAPFTFGPGTKVDIKR
notes: Human IgG2, C-terminal lysine removed; also called anti-CD40 mAb 3C3; CD40 antibody 3C3
For B1, the binding result in experiment [1] and in experiment [2] was “no binding (tested: ~1 ug/ml fragment)” each time.
